Legend:
[1] = molecular target: T1, GST/NaPi2b-L fusion protein (aa 188-361 of NaPi2b) (human, UniProt O95436 188-361); test: Western blot
T1 construct: range 188-361; GST is put first here (pGEX vector); also called GST-fusion protein (covering aa 188-361 of NaPi2b); bacterial fusion protein; not shown: glutathione S-transferase (GST) tag of vector pGEX4T1
T1 sequence (looked up): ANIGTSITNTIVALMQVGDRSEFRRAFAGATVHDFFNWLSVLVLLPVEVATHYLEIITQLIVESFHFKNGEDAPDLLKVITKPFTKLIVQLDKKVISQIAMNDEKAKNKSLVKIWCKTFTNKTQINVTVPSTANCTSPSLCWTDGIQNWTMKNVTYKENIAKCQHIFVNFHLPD

[2] = molecular target: T2, His-NaPi2b-ECD (His-tagged aa 188-361 of NaPi2b, Sf9 insect cells) (human, UniProt O95436 188-361); test: Western blot
T2 construct: range 188-361; Baculovirus expression; also called His-tagged protein in Sf9 insect cells; not shown: His tag
T2 sequence (looked up): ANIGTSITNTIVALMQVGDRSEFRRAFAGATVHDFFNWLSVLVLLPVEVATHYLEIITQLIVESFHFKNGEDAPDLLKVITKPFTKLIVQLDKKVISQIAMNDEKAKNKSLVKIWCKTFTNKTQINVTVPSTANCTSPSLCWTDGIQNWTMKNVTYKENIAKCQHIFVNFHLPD

[3] = molecular target: T3, synthetic 29mer peptide representing amino acids 312-340 of the NaPi2b protein (human); test: peptide ELISA and dot blot
T3 construct: no end modifications stated
T3 peptide: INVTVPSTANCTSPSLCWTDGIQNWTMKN

murine NaPi2b protein = molecular target: T4, murine NaPi2b protein (mouse, UniProt Q9DBP0 1-697); test: Western blot of mouse tissues (data not shown)
T4 construct: also called the murine protein; murine counterpart
T4 sequence (looked up): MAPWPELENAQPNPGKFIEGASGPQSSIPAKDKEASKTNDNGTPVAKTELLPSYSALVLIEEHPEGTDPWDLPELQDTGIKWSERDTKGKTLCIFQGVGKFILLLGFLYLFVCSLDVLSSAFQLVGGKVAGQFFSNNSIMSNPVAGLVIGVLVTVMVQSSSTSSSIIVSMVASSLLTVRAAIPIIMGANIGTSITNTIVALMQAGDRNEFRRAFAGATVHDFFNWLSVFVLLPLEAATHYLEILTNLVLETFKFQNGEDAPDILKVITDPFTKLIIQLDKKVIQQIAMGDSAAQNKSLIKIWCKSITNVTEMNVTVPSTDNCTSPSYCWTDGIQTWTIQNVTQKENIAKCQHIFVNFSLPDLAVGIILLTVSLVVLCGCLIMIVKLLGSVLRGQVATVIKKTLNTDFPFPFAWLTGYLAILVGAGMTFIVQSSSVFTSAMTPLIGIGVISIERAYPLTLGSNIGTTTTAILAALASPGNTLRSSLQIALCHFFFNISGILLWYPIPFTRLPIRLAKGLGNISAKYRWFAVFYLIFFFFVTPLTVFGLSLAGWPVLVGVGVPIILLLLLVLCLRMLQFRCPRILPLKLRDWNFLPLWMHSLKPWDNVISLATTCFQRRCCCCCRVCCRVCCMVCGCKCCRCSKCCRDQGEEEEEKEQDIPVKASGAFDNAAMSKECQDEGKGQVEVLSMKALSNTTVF

[4] = molecular target: T5, NaPi2b mutant T330V expressed in stably transfected HEK293 cells (pcDNA3.1/NaPi2b-T330V) (human, UniProt O95436 1-690); test: Western blot of lysates of stably transfected HEK293 cells
T5 construct: whole, on cells; Made by site-directed mutagenesis of pcDNA3.1/NaPi2b; also called mutant form T330V; not shown: EE-tag
T5 sequence (looked up): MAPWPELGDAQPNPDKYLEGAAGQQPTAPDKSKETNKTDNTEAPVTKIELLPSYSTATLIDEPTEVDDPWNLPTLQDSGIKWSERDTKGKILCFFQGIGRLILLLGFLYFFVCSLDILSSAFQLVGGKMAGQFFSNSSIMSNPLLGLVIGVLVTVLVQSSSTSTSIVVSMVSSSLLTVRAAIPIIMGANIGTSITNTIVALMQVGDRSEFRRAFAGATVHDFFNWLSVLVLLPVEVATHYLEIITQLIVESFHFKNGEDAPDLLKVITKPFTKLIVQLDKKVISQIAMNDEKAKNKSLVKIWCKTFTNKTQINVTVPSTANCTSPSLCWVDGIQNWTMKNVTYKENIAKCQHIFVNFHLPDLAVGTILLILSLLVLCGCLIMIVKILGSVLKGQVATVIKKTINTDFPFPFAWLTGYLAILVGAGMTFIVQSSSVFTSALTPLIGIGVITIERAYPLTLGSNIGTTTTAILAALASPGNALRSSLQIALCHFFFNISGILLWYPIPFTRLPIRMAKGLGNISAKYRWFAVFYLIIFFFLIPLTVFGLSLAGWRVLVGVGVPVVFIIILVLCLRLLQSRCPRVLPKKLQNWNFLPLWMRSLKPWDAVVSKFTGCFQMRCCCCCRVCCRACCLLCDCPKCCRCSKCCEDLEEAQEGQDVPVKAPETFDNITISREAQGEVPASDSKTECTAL
Procedure: Stably transfected HEK293 cells were lysed in buffer containing 10 mM Tris-HCl, pH 7.5, 150 mM NaCl, 10 mM MgCL₂, 0,5% NP-40, and a mixture of Halt Protease Inhibitor Cocktail (Pierce, USA). Protein concentration was measured by Bradford assay (Pierce, USA), and equal amounts of proteins (10 μg) were separated in 8% SDS-PAGE and blotted to polyvinylidene difluoride (PVDF) membrane (Millipore, USA). The membrane was blocked with 3% BSA in PBS (phosphate-saline buffer) containing 0.1% Tween-20 (PBST) for 1 h. Anti-NaPi2b and anti-EE-tag antibodies were incubated with membranes at 4° C. overnight. Generation of monoclonal antibodies against the extracellular loop of transporter was previously described. After washing with PBST, HRP-conjugated goat anti-mouse IgG 1:5000 (Promega, USA) was added to the membrane for 1 h at RT. Western blots were developed using the ECL system (Amersham, Sweden) and then exposed to Agfa X-ray film.
The expression of NaPi2b (wild type and mutant forms) in HEK293 was confirmed by Western blot analysis of total cell lysates with anti-EE monoclonal antibody (FIG. 22A) or anti-NaPi2b monoclonal antibodies (FIG. 22B).

- binding result [1]: binds
- binding result [2]: binds
- binding result [3]: binds
- binding result (murine NaPi2b protein): no binding
- binding result [4]: no binding
B1: Murine mAb MX35 (IgG1) (antibody, V domains shown)
VH: QVQLKQSGAELVKPGASVKMSCKASGYTFTGYNIHWVKQTPGQGLEWIGAIYPGNGDTSYKQKFRGKASLTADTSSSTVYMQLSSLTSEDSAVYYCARGETARATFAYWGQGTLVTVSA
VL: DIQMTQTTSSLPASLGDRVTISCSASQDIGNFLNWYQQKPDGTVKVLIYYTSSLYSGVPSRFSGSGSGTDYSLTISNLEPEDIATYYCQQYSKLPLTFGAGTKLELKR
notes: also called MX35 MAb; monoclonal antibody MX35

Reference: patent publication US20140193417A1 (LUDWIG INSTITUTE FOR CANCER RESEARCH, published 2014)
